These results are taken from US6344189B1, “Use of protease inhibitors for treating skin wounds” (Biotech Australia Pty., Ltd., priority 1998, dated 2002).

“Also recorded” adds a separate entry of the source. Read-outs that look alike come from different tables or passages of the source. Where a SMILES comes first, the peptide text is derived from it. [ ]: non-standard residue; d: D form. The star is where a group is joined. Sta = CC(C)C[C@H](N)[C@@H](O)CC(=O)O; Isovaleryl = CC(C)CC(=O)*

Data set [1] relates to protease activity in wound fluid. In words: Inhibition of protease activity in wound fluid in vitro, substrate ZGGRAMC, fluorescence at 460 nm. The data set is classed as biochemical, patients.
Procedure: Wound fluid was collected from patients with chronic venous leg ulcers, and incubated in vitro in the presence or absence of each inhibitor along with the protease substrate ZGGRAMC. Cleavage of this substrate indicated protease activity, which was detected by fluorescence at 460 nm. Lack of fluorescence indicated inhibition of protease activity.
Conditions were as described above for single inhibitors.
Data set [2] has as its system chronic venous leg ulcers. Kind of data set: Double blind placebo controlled randomized trial of topical PAI-2, ulcer area by tracing. The data set is classed as in vivo, patients. Conditions: PAI-2 20 μg per cm^2 topical, five consecutive days; 29-day course; compared with placebo. An excerpt: The study was a double blind placebo controlled randomized trial. A stratified randomization was utilized according to ulcer size. Patients with ulcers less than, and greater than, 20 cm^2 were randomized separately. No minimum or maximum times were set for the patients' current ulcer episode. Minimum and maximum ulcer areas were 2 cm^2 and 50 cm^2, and a patient's resting ankle brachial doppler arterial pressure index for inclusion was equal to or greater than 0.80.
All patients received compression bandaging. The area of the ulcer was determined by tracing, and the test solution, either PAI-2 at 1.0 mg/ml in phosphate buffered saline, pH 7.0, or buffer alone, was applied at 20 μl (20 ,μg in the case of PAI-2) per cm^2. The patient was asked to lie recumbent on the examination couch while the test solution was applied to the surface of the wound, and to remain there for 15 minutes before bandaging was applied.
(§1) Test solution was applied in this manner for five consecutive days. This was followed by visits on days 15, 22, and 29. Ulcer area determination was made on days 1, 5, 15, 22, and 29, ulcer volume was measured by structured light assessment on days 1, 5, and 29, and the ulcer was photographed on days 1, 5, and 29. Adverse events were assessed at each visit, as were concomitant medications.

Data set [3] relates to uPA. Kind of data set: uPA activity in patients' wound fluid by Chromolise assay. Format: in vivo. On the procedure: (§2) In addition, wound fluid was collected on the first day before addition of test solution, and 2 hr, 4 hr, and 6 hr afterwards. Wound fluid collection was also made on days 2, 3, 4, and 5 (before test solution addition) and day 29. Blood samples were taken on day 1 at 0 (before), 0.5 hr, 1 hr, and 2 hr after the test solution, and also at day 5. A punch biopsy was taken for histochemical examination of the ulcer edge on day 5.
(§3) All wound fluid samples were analyzed for uPA activity by the Chromolise assay, and for total protein by the Bradford assay. If sufficient wound fluid was available, the following assays were also performed, in order of priority: (i) PAI-2 antigen level, by ELISA; (ii) a Western blot to detect whether the PAI-2 molecule was intact, complexed, or in fragments; (iii) total protease activity, determined by a chromogenic assay using azo-casein as substrate, and (iv) total protease activity in the presence of EDTA (to block metalloproteases) or aprotinin (to block plasmin). In addition, blood samples were analyzed by PAI-2 ELISA (0, 0.5, 1, 2 hr on day 1) and analyzed for FBC and clinical chemistry on day 1(0) and day 5.
(§4) The ELISA used for PAI-2 detected both glycosylated and non-glycosylated PAI-2, and both complexed (with uPA or tPA) and uncomplexed PAI-2. Insufficient wound fluid was obtained for total protease assays in the presence of aprotinin or EDTA. The variation in ulcer volume measurements by structured light assessment was very large:—20.4% on repeated measurements, so those data could not be used to judge small changes in ulcer volume.

The nature of data set [4]: PAI-2 antigen level by ELISA and Western blot in wound fluid and blood samples. Format: in vivo, patients. Conditions: for level of PAI-2 in wound fluid: first visit. On the procedure: as §2, §3, §4
Data set [5] concerns total protease activity in wound fluid. Kind of data set: Total protease activity in wound fluid, chromogenic assay with azo-casein substrate. Format: in vivo, patients. Conditions: ng/ml of wound fluid or ng/mg protein. The method, then: as §3
Data set [6] in a line: Adverse events and histological examination of ulcer edge biopsies. The data set is classed as in vivo, patients. The method, then:
as §1, §2
Histological examination was performed on biopsies taken at visit 5 after staining with hematoxylin and eosin. […] This effect is likely to be beneficial to the ulcer.

A short description of data set [7]: Stability of PAI-2 in wound fluid. The data set is classed as in vitro ADME. As to conditions: 3-hour period, FIG. 1. The method, then: (§5) It also is apparent that the inhibitors must be stable in the wound fluid to be effective in aiding wound healing. In the context of the present invention, an inhibitor is suitably stable when it retains at least 50% of its activity after exposure to wound fluid for 3 hours. In this regard, therefore, it is particularly desirable to use an inhibitor that inhibits uPA and is stable in wound fluid.

Data set [8] deals with T1, uPA (Homo sapiens, UniProt P00749).
T1 construct: from tissue; host or cells: wound fluid
Kind of data set: Addition of PAI-2 to wound fluid, uPA activity. The data set is classed as biochemical. Conditions: PAI-2 added to wound fluid. On the procedure:
as §5

Data set [9] is described as follows: PAI-2 release from gel in two compartment vessel with microporous membrane. Format: physicochemical. As to conditions: cellulose gel, presence of Tween80, FIG. 4. An excerpt:
In these experiments, the PAI-2 containing gel was placed in the top chamber of a two compartment vessel. The bottom chamber contained buffer, and the two chambers were separated by a microporous membrane. The appearance of PAI-2 in the lower chamber indicated PAI-2 release from the gel, and was monitored by assays for PAI-2 activity.

Where [10] appears, read: single inhibitors, wound fluid of chronic venous leg ulcers.

For `N=C(N)NC(=O)c1nc(Cl)c(N)nc1N` [Amiloride], the “Percent Inhibition” value in data set [1] (setting [10]) is 96%.

For `O=C(O)CN(CCN(CC(=O)O)CC(=O)O)CC(=O)O` [EDTA, ethylene diamine tetraacetic acid], the “Percent Inhibition” value in [1] (setting [10]) amounted to 0%.

In the case of `CCN1C(=O)C=CC1=O` [NEM, N-ethyl maleimide], in [1] (setting [10]), the “Percent Inhibition” value worked out at 21%.

On to `CC(C)CC(=O)N[C@H](C(=O)N[C@H](C(=O)N[C@@H](CC(C)C)[C@@H](O)CC(=O)N[C@@H](C)C(=O)N[C@@H](CC(C)C)[C@@H](O)CC(=O)O)C(C)C)C(C)C` [Pepstatin] (Isovaleryl-VV[Sta]A[Sta]-OH), for which the “Percent Inhibition” value in data set [1] (setting [10]) is given as 0%.

Turning to “glutamic acid-glycine-arginine chloromethyl ketone [EGRCK]”, in data set [1], the “Percent Inhibition” value is 94%.

B1: plasminogen activator inhibitor 2 (protein, UniProt P05120 1-415, looked up)
Plasminogen activator …: MEDLCVANTLFALNLFKHLAKASPTQNLFLSPWSISSTMAMVYMGSRGSTEDQMAKVLQFNEVGANAVTPMTPENFTSCGFMQQIQKGSYPDAILQAQAADKIHSSFRSLSSAINASTGNYLLESVNKLFGEKSASFREEYIRLCQKYYSSEPQAVDFLECAEEARKKINSWVKTQTKGKIPNLLPEGSVDGDTRMVLVNAVYFKGKWKTPFEKKLNGLYPFRVNSAQRTPVQMMYLREKLNIGYIEDLKAQILELPYAGDVSMFLLLPDEIADVSTGLELLESEITYDKLNKWTSKDKMAEDEVEVYIPQFKLEEHYELRSILRSMGMEDAFNKGRANFSGMSERNDLFLSEVFHQAMVDVNEEGTEAAAGTGGVMTGRTGHGGPQFVADHPFLFLIMHKITNCILFFGRFSSP
With B1, the ulcer area result in data set [2] is “significant decrease in the area of leg ulcers compared to controls; also recorded: a reduction in the ulcer area”. Moreover, the “specific activity of uPA (ng/mg of total protein in wound fluid)” value in [3] (first day of PAI-2 administration, relative to placebo group) is recorded as “declined over 6 hrs”. The “difference in uPA between the two groups expressed as units/ml of wound fluid” value in data set [3] (per ml of wound fluid rather than per mg total protein) is “not apparent”. Also, the “uPA activity in wound fluid” value in data set [3] (subsequent days over the course of the study, PAI-2 vs placebo) is listed as “no significant difference”; in data set [8], “caused the inhibition of uPA activity”. The “intact PAI-2 in wound fluid, Western blot” value in data set [4] (2 hr) is on record as “significant amounts of intact PAI-2”. In addition, the “level of PAI-2 in wound fluid” value in data set [4] (2 hr after topical application) is given as “increased dramatically”; in [4] (4 hr after topical application), “declined almost to baseline”. Moreover, in data set [4] (blood samples, PAI-2 ELISA), the “systemic distribution of topically applied PAI-2” value is “No evidence of systemic distribution”. Further, the total protease activity result in data set [5] is reported as “did not appear to be altered”. Also, the “damage to the tissue, histological examination” value in [6] (biopsies at visit 5, hematoxylin and eosin) is recorded as “No evidence of damage to the tissue”. Moreover, the systemic toxicity entry in [6] (in vivo) was “does not appear to have systemic toxicity”. In data set [6] (topical PAI-2, chronic leg ulcers, course of the study), the adverse events entry is “none of the adverse events was deemed related to the PAI-2 treatment”. Moreover, the “stability in wound fluid” value in [7] is “relatively stable in wound fluid”. In addition, the “release of PAI-2 from gel” value in data set [9] was “enhanced release”.
